This is an account of results in patent publication US20090226429A1 (Human Genome Sciences, published 2009).

Residue numbers refer to the chain shown, from its start.

The labels stand for the following.
T1: TR4:Fc receptor (human, UniProt O00220 109-240)
T1 construct: also called TR4-Fc fusion protein; not shown: Fc region
T1 chain: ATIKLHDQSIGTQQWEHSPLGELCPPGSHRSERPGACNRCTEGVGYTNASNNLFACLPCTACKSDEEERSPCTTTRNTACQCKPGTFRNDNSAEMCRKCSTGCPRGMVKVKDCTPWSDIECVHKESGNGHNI

T2: TR5 (human, UniProt O14798 30-242)
T2 construct: Antigen coated in the specificity phage ELISA; also called TRAIL-R3; DcR1
T2 chain: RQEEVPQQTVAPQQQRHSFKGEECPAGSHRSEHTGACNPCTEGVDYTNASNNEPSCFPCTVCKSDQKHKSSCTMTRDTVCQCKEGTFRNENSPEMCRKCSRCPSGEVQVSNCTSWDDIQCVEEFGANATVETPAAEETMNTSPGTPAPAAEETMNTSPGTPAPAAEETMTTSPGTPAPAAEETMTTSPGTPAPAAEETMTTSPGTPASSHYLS

T3: TR10 (human, UniProt Q9UBN6 56-204, limits assumed)
T3 construct: Antigen coated in the specificity phage ELISA; also called TRAIL-R4; DcR2
T3 sequence: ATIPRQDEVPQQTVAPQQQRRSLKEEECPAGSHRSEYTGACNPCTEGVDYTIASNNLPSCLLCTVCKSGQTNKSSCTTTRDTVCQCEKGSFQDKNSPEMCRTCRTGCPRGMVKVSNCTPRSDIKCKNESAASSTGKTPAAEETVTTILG

B1: IgG1 antibody comprising the VH and VL domains of the T1014A04 scFv (antibody, V domains shown)
VH: EVQLVQSGADVKRPGASVKVSCKISGDSFNAYFIHWVRQAPGQGLEWMGWFNPDSGTADSAQKFHGRVTMTRDTSSSTAFLELSRLRSDDTAVYYCVRQHRGNTFAPWGRGTMVTVSS
VL: QSVLTQPPSASGSPGQSVTISCTGTTSDVGGYNYVSWYQQHPGKAPKLMIYGVNQRPSGVPDRFSGSKSGNTASLTVSGLQAEDEADYYCSSYAGSNNWVFGGGTKLTVLG
notes: Whole IgG1; also called IgG1 format of T1014A04
B2: IgG1 antibody comprising the VH and VL domains of the T1014G04 scFv (antibody, V domains shown)
VH: B1 VH with N30T, M113L
VL: QPVLTQPPSASGSPGQSVTISCTGTSSDVGSYEYVSWYQQHPGKAPRLMISEVNKRPSGVPNRFSGSKSGNTASLTVSGLQADDEADYYCSSYAGSNNWVFGGGTKVTVLG
notes: Whole IgG1; also called T14G04
B3: IgG1 antibody comprising the VH and VL domains of the T1014G03 scFv (antibody, V domains shown)
VH: EVQLVQSGAEVKMPGASVKLSCRVSGDTFTAYFIHWVRQAPGQGLEWMGWFNPISGTAGSAEKFRGRVAMTRDTSISTAYMELNRLTFDDTAVYYCARQHRGNTFDPWGQGTLVTVSS
VL: QSALTQPASVSGSPGQSITISCTGTSSDIGAYKYVSWYQQHPGKAPKLVIYEVSNRPSGVSSRFSGSKSGQTASLTISGLQADDEADYYCNSYQGYNTWVFGGGTKVTVLG
notes: Whole IgG1
B4: scFv T1014B11 (scFv)
scFv: EVQLVQSGAEVKKPGASVKVSCKISGDSFTAYFIHWLRQAPGEGLEWMGWFNPISGTAGSPQKFHGRVAMTRDTSISTAYMELTRLASDDTAIYYCARQHHSNTFDPWGQGTLVTVSSGGGGSGGGGSGGGGSAQSALTQPASVSGSPGQSITISCTGTNSDVGGYNYVSWYQQHPGKAPKLMIYEVNNRPSGVSNRFSGSKSGNTASLTISGLQADDEADYYCSSYTTSNTWVFGGGTKLTVLG
B5: scFv T1014F08 (scFv)
scFv: EVQLVQSGAEVKKPGASVKLSCRVSGDTFTAYFIHWVRQAPGQGPEWMGWFNPISGTAGSAARFRGRVAMTRDTSISTAYMELNRLTFDDTAVYYCARQHRGNTFDPWGKGTLVTVSSGGGGSGGGGSGGGGSALPVLTQPPSASGSPGQSVTISCTGTSSDVGGYKYVSWYQQHPGKAPKLMIYEVSMRPSGVPDRFSGSKSGNTASLTVSGLQAEDEADYYCASYAGSNNWVFGGGTKLTVLG
B6: scFv T1014A04 (scFv)
scFv: EVQLVQSGADVKRPGASVKVSCKISGDSFNAYFIHWVRQAPGQGLEWMGWFNPDSGTADSAQKFHGRVTMTRDTSSSTAFLELSRLRSDDTAVYYCVRQHRGNTFAPWGRGTMVTVSSGGGGSGGGGSGGGGSAQSVLTQPPSASGSPGQSVTISCTGTTSDVGGYNYVSWYQQHPGKAPKLMIYGVNQRPSGVPDRFSGSKSGNTASLTVSGLQAEDEADYYCSSYAGSNNWVFGGGTKLTVLG
B7: scFv T1014G03 (scFv)
scFv: EVQLVQSGAEVKMPGASVKLSCRVSGDTFTAYFIHWVRQAPGQGLEWMGWFNPISGTAGSAEKFRGRVAMTRDTSISTAYMELNRLTFDDTAVYYCARQHRGNTFDPWGQGTLVTVSSGGGGSGGGGSGGGGSAQSALTQPASVSGSPGQSITISCTGTSSDIGAYKYVSWYQQHPGKAPKLVIYEVSNRPSGVSSRFSGSKSGQTASLTISGLQADDEADYYCNSYQGYNTWVFGGGTKVTVLG
B8: scFv T1014G04 (scFv)
scFv: EVQLVQSGADVKRPGASVKVSCKISGDSFTAYFIHWVRQAPGQGLEWMGWFNPDSGTADSAQKFHGRVTMTRDTSSSTAFLELSRLRSDDTAVYYCVRQHRGNTFAPWGRGTLVTVSSGGGGSGGGGSGGGGSAQPVLTQPPSASGSPGQSVTISCTGTSSDVGSYEYVSWYQQHPGKAPRLMISEVNKRPSGVPNRFSGSKSGNTASLTVSGLQADDEADYYCSSYAGSNNWVFGGGTKVTVLG

One experiment addresses T1, TR4:Fc receptor. In words: SPR (BIAcore 2000), TR4:Fc amine-coupled on CM5 chip, IgG1 as analyte, double reference subtraction, 1:1 Langmuir fit, 25 C. The procedure: The optimal pH for this coupling was analyzed using preconcentration experiments ranging from pH 4-7 and was determined to be pH 4.0 for both the TR4 and the TR2 receptor. Amine coupling was used to covalently bind each receptor (fc) to the dextran matrix on the CM5 sensor chip. The immobilization experiment was performed using the manual injection mode. The entire immobilization experiment was performed at 5 μL/min. A 3-minute injection of EDC/NHS (1:1) was applied to each flow cell to active esters. A target level of ˜200RU was set as the goal for all each flow cell. Fc-fusion receptors, TR4 and TR2 at 5 μg/mL, were immobilized onto individual flow cells of a sensor chip. The amount applied varied from 8-14 μL. A 3-minute ethanolamine injection completed the immobilization experiment by inactivating the esters.
The kinetics cycles were performed as follows: The flow rate for the entire cycle was 25 μL/minute with the flow path including both the control (TR2) and experimental (TR4) flow cell at all times. A 1-minute buffer injection was applied to stabilize the baseline. The purified antibody (IgG1 antibody comprising the VH and VL domains of each of the T1014A04, T1014G03, T1014F08, and T14G04 scFvs) was diluted from 10 μg/mL (65 nM) to 0.115 μg/mL (0.75 nM) in running buffer and tested in duplicate. Each concentration was in contact with the control (TR2) and the experimental (TR4) flow cell during a 4-minute association and a 10-minute dissociation phase. Regeneration was performed using 25 mM NaOH from 5-12 μL depending on the sample concentration.
A double-reference subtraction was performed, which refers to the control flow cell subtraction for every cycle, in addition to a buffer cycle subtraction. The 1:1 Langmuir model was used for all evaluation fitting.
(In SPR one partner is held on a chip, and binding of the other changes the refractive index at the surface.)
By Kd is commonly meant a measure of binding affinity in units of concentration. A higher Kd goes with a looser complex. For B1, binding was characterised by a dissociation constant (Kd) of 0.468 nM.

Molecule B2 showed a Kd of 0.194 nM.

B3: the Kd was 0.554 nM.

The target of another experiment is T4, BLyS (human, UniProt Q9Y275 134-285, limits assumed).
T4 construct: Unrelated control antigen in the specificity phage ELISA
T4 sequence (Q9Y275 134-285 limits assumed): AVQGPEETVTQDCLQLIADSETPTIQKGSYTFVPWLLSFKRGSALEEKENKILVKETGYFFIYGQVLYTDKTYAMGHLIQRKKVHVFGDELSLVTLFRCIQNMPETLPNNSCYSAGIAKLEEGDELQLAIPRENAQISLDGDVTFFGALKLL
In words: specificity phage ELISA, antigen coated at 1 ug/ml. The procedure: (§1) Flexible 96-well plates (Falcon) were coated overnight at 4° C. with each antigen (1 μg/ml). All antigens were coated in PBS. After coating, the solutions were removed from the wells, and the plates were blocked for 1 hour at room temperature in MPBS. The plates were washed 3 times with PBS and then 50 μl of pre-blocked phage was added to each well. The plates were incubated at room temperature for 1 hour and then washed with 3 changes of PBST followed by 3 changes of PBS.
(§2) To each well, 50 μl of an anti-M13-HRP conjugate (Pharmacia) at a 1 in 5000 dilution in MPBS was added and the plates incubated at room temperature for 1 hour. Each plate was washed three times with PBST followed by three times with PBS.
(§3) Fifty μl of TMB substrate was then added to each well, and incubated at room temperature for 30 minutes or until colour development. The reaction was stopped by the addition of 25 μl of 0.5 M H₂SO₄. The signal generated was measured by reading the absorbance at 450 nm (A₄₅₀) using a microtitre plate reader (Bio-Rad 3550).
With B4, the binding result is “no binding”.

With B5, the binding result is on record as “no binding”.

Regarding B6, the binding result is listed as “no binding”.

For B7, the binding result is “no binding”.

In the case of B8, the binding result was “no binding”.

A further experiment addresses T5, TR7 (human, UniProt O14763 52-184, limits assumed).
T5 construct: Antigen coated in the specificity phage ELISA; also called TRAIL-R2; DR5
As to the kind of experiment: specificity phage ELISA, antigen coated at 1 ug/ml. Here is the method:
as §1, §2, §3
In the case of B4, the binding result is given as “no binding”.

As to B5, the binding result is “no binding”.

As to B6, the binding result is “no binding”.

Consider B7, for which the binding result is “no binding”.

Regarding B8, the binding result is “no binding”.

Another experiment addresses T2, TR5. As to the kind of experiment: specificity phage ELISA, antigen coated at 1 ug/ml. Here is the method: as §1, §2, §3
For orientation: In an ELISA, binding on a coated surface is turned into a signal by an enzyme label.
Regarding B4, the binding result is reported as “no binding”.

For the molecule B5, the binding result was “no binding”.

For B6, the binding result is “no binding”.

For B7, the binding result was “no binding”.

For B8, the binding result is on record as “no binding”.

For a further experiment, the target named is T3, TR10. As to the kind of experiment: specificity phage ELISA, antigen coated at 1 ug/ml. The procedure:
as §1, §2, §3
For B4, the binding result is “no binding”.

For the molecule B5, the binding result is “no binding”.

As to B6, the binding result is reported as “no binding”.

Regarding B7, the binding result is “no binding”.

For the molecule B8, the binding result is reported as “no binding”.
